± gives the uncertainty stated by the source.
Experiment: protein stability index of a GFP-peptide fusion (yeast GPS) (PSI 1-4); higher = more stable; sorted into four equal gates, so the index is relative within each strain
In short: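 Plasmids isolated from each sorting gate were PCR-amplified and Illumina-sequenced, and barcodes assigned the reads to strains. The gates, four of equal size, were set by GFP/Cherry fluorescence ratio on mid-log cultures in leucine-free medium. These cultures were yeast carrying a pooled library of tiled 17-residue yeast protein peptides fused downstream of GFP on a plasmid that also expresses Cherry. The protein stability index is the sum of every gate's read frequency times its gate number.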

Sequence	protein stability index (doa10∆)	protein stability index (pdr5∆)	protein stability index (ubr1∆)	protein stability index (san1∆)
TFHHHGRQTVLIKDNSA [SRB2]	1.92 ± 0.25	2.52 ± 0.21	2.56 ± 0.24	
EAIRDPKNSSSPVQIAF [SSN8]	2.55 ± 0.17	2.96 ± 0.15	2.98 ± 0.12	1.92 ± 0.22
SHFSLDQFITSLKCTDP [ITC1]	2.09 ± 0.073	2.42 ± 0.079	2.12 ± 0.1	2.35 ± 0.076
EAGLQLCRQGHNMLNLL [PRP8]	2.24 ± 0.079	2.29 ± 0.12	1.99 ± 0.06	2.07 ± 0.14
NESKIKELNEKIQKLEE [RPN7]	2.95 ± 0.16	2.48 ± 0.11	2.09 ± 0.14	2.26 ± 0.14
TSLVANENDKIYLLFQS [YDL116W/NUP84]	2.37 ± 0.058	2.59 ± 0.05	2.79 ± 0.035	2.42 ± 0.054
KYPMYMQLEEELMKLDG [MED6]	2.14 ± 0.091	1.44 ± 0.084	1.36 ± 0.06	1.39 ± 0.16
IAMPKRRMAFKPFGSAK [YLR335W/NUP2]	2.86 ± 0.052	3.09 ± 0.064	2.73 ± 0.044	3.11 ± 0.043
TKPSDLTIKDIVLGVKD [RPO21]	2.51 ± 0.085	2.15 ± 0.1	2.83 ± 0.044	1.95 ± 0.15
QIISNAHNKPSLFSKIK [YAR002W/NUP60]	2.94 ± 0.088	2.98 ± 0.093	2.94 ± 0.058	2.77 ± 0.071
NHITEFPSIPLPINGPI [RPC31]	2.06 ± 0.05	2.24 ± 0.048	1.94 ± 0.051	2.08 ± 0.07
VAGGKKALAIFVPVPSL [RPS7A]	2.49 ± 0.056	1.53 ± 0.047	1.54 ± 0.043	1.7 ± 0.088
EVYRTSLNTKKNEKLIL [SMC3]	1.75 ± 0.082	1.96 ± 0.074	2.35 ± 0.1	2.73 ± 0.13
VQVGPMKVFVTKHLMPQ [RPB7]	2.54 ± 0.047	2.37 ± 0.041	2.52 ± 0.042	2.14 ± 0.062
QVGERIKQTFKNDLFVI [RPO21]	2.38 ± 0.066	2.36 ± 0.07	2.49 ± 0.064	2.56 ± 0.06
LMEFLCVVSTDSTNLSD [ECM29]	1.92 ± 0.059	1.65 ± 0.056	1.72 ± 0.063	1.84 ± 0.094
SFTDILKSAIRDEIAKN [RPN12]	2.76 ± 0.1	2.98 ± 0.12	2.89 ± 0.065	3.08 ± 0.09
DEMYELTDPMTVMFFYH [DIB1]	2.69 ± 0.092	3.01 ± 0.11	2.85 ± 0.11	2.83 ± 0.14
TNELWARLAILKERAKN [YGR119C/NUP57]	3.26 ± 0.13	2.75 ± 0.2	3.58 ± 0.13	
ELLETVSLTKRKQEREI [YIL149C/MLP2]	1.43 ± 0.095	1.61 ± 0.07	1.12 ± 0.036	1.5 ± 0.19
FKSSVEMGKTDKSTKTA [YOR098C/NUP1]	3.45 ± 0.095	3.24 ± 0.099	3.43 ± 0.063	3.24 ± 0.05
FPQTAMLRRHAAPPSTN [DIS3]	1.89 ± 0.1	1.93 ± 0.12	1.74 ± 0.07	
LVNGFSQSQQKLLKEKV [MED2]	2.03 ± 0.055	2.27 ± 0.068	2.61 ± 0.052	2.41 ± 0.066
ASSWAKKIAQRERRAAL [RPL14A]	2.53 ± 0.099	3.32 ± 0.14	2.22 ± 0.079	2.62 ± 0.18
GWFHSHPGYDCWLSNID [RRI1]	2.85 ± 0.075	3.05 ± 0.054	2.81 ± 0.071	2.77 ± 0.074
TDKIGRSVPAPGKGILT [FAS2]	2.95 ± 0.17	3.16 ± 0.13	3.21 ± 0.12	2.79 ± 0.2

Sequence	protein stability index (doa10∆)	protein stability index (pdr5∆)	protein stability index (ubr1∆)	protein stability index (san1∆)
LKSIESLKLENSDLEGK [SMC2]	3.07 ± 0.13	2.8 ± 0.099	2.99 ± 0.12	3.39 ± 0.17
RQKKKPTSAQKSAVSHA [IRR1]	1.34 ± 0.24		1.56 ± 0.15	
QEELKKRQELEEASQQQ [MED2]	2.96 ± 0.058	3.2 ± 0.076	3.29 ± 0.046	2.47 ± 0.071
LEGSVSLPRFSKPVLIV [DIS3]	2.67 ± 0.072	2.57 ± 0.063	3.02 ± 0.062	2.19 ± 0.06
SLEQRTLNPDLFLYKEL [RPC82]	3.28 ± 0.28	3.13 ± 0.19	3.74 ± 0.27	3.21 ± 0.092
LQCHISGTTNFMRNGLL [UBP6]	1.64 ± 0.1	1.66 ± 0.081	2.31 ± 0.17	1.81 ± 0.15
DGHLRAPLKHGVGILYK [BRR2]	1.31 ± 0.055	2.33 ± 0.08	1.26 ± 0.07	1.58 ± 0.2
EQDILDLIAEQVVTDYN [SSN2]	3 ± 0.17	3.44 ± 0.12	2.47 ± 0.14	3.08 ± 0.18
VDNSPTTESNSRLKALN [YLR335W/NUP2]	3.18 ± 0.07	3.12 ± 0.057	2.97 ± 0.059	3.11 ± 0.058
MKKKLELISYRNESLKN [SRB8]	2.96 ± 0.045	2.98 ± 0.058	3.07 ± 0.035	2.94 ± 0.05
ISPESVFGTLGELIKVN [SMC3]	2.15 ± 0.06	2.25 ± 0.078	1.86 ± 0.036	1.84 ± 0.096
LKNKKEIYRISFQLSKI [RPS9A]	3.03 ± 0.12	3.09 ± 0.084	3.2 ± 0.058	3.1 ± 0.089
IREIDVTGGKKALVLFV [RPS7B]	1.3 ± 0.085	1.5 ± 0.1	1.23 ± 0.063	1.3 ± 0.21
VDDAIELALKTLSKTTD [PRE9]	2.43 ± 0.066	1.92 ± 0.063	2.64 ± 0.057	2.42 ± 0.074
TSDLLGSHLSETEFPPF [ECM29]	2.94 ± 0.049	3.17 ± 0.062	2.9 ± 0.058	3.17 ± 0.042
LVDQGFNYSGKDMLYSG [RET1]	3.46 ± 0.084	3.29 ± 0.083	3.52 ± 0.044	3.36 ± 0.052
WQYYYYTLTEEGVEYLR [RPS10A]	2.58 ± 0.084	2.66 ± 0.072	3.21 ± 0.1	2.74 ± 0.098
HGYFLQDKEKIDNLKDT [ITC1]	3.18 ± 0.072	3.41 ± 0.069	3.42 ± 0.057	3.24 ± 0.057
EVRILPRQRMEEVVSND [PRP8]	2.52 ± 0.11	2.73 ± 0.084	2.57 ± 0.084	2.69 ± 0.064
SVDDVLSALDHIGHSAL [DPB4]	3.26 ± 0.2	3.53 ± 0.18	3.46 ± 0.069	3.27 ± 0.083
QLKWAQNTIDDTEMKMK [YIL149C/MLP2]	2.15 ± 0.046	2.88 ± 0.056	2.74 ± 0.059	2.71 ± 0.059
LFVCNKDPDVPLVLLQQ [POP3]	2.57 ± 0.082	2.32 ± 0.077	2.27 ± 0.058	2.26 ± 0.11
LEKLVDHHPEGLSAREA [PRE10]	2.92 ± 0.068	2.9 ± 0.059	2.62 ± 0.058	2.65 ± 0.067
DKILQLNDRFQTLSSHL [PGD1]	2.46 ± 0.048	2.66 ± 0.042	2.46 ± 0.058	2.55 ± 0.051
EDGPRPFKVFLDIGLQR [RPL5]	3 ± 0.068	3.17 ± 0.058	3.04 ± 0.033	3.06 ± 0.052
VASQTVKKVIEINPFLL [PRE2]		3.07 ± 0.17		2.44 ± 0.11

Sequence	protein stability index (doa10∆)	protein stability index (pdr5∆)	protein stability index (ubr1∆)	protein stability index (san1∆)
GDYNNTVYSSEQYIQEL [SMC3]	2.9 ± 0.11	3.2 ± 0.11	3.14 ± 0.042	3.22 ± 0.074
KTEDGFVIPALPAAVSK [RPC82]		2.41 ± 0.26	2.8 ± 0.2	
IGEFNVSMYQNSSTSST [YDL088C/ASM4]	3.61 ± 0.28	1.97 ± 0.13	2.17 ± 0.098	
AAGAGAAAGAAMIDAGA [FAS2]	2.84 ± 0.15	2.98 ± 0.12	2.99 ± 0.12	
KNSSTSNTEPIPRSNRH [MED1]	3.1 ± 0.14	3.26 ± 0.12	3.18 ± 0.063	2.91 ± 0.091
GPKLRASDLKINELFKK [RPN8]	1.98 ± 0.12	1.42 ± 0.11	1.08 ± 0.13	1.1 ± 0.13
ELSKSRALQENGIIMNG [YMR153W/NUP53]	2.63 ± 0.16	2.85 ± 0.13	3.17 ± 0.15	2.64 ± 0.16
TPNFDDVLKENNDADKG [RIP1]	1.51 ± 0.093	1.35 ± 0.12	1.76 ± 0.092	1.29 ± 0.15
NNPANNTNNNNSTGHSS [SWI1]	2.58 ± 0.036	2.15 ± 0.035	2.12 ± 0.036	2.59 ± 0.034
EEKKKEHEEKEKERETN [RPN2]	3.3 ± 0.23	3.37 ± 0.1	3.44 ± 0.24	3.38 ± 0.15
NLLPKKSAKATKASQEL [HTA1]	2.93 ± 0.1	3.09 ± 0.12	3.03 ± 0.088	3.17 ± 0.069
QMDGFDNLGQTKIIMAT [RPT4]	3.54 ± 0.091	3.55 ± 0.11	3.48 ± 0.098	3.66 ± 0.082
KPETPKGPIIISKNPSN [SIR2]	2.92 ± 0.063	3 ± 0.052	2.88 ± 0.046	2.67 ± 0.06
KAAISFGAKPEEQKSSD [YJL041W/NSP1]	3.12 ± 0.13	2.94 ± 0.2	3.1 ± 0.12	3.5 ± 0.17
RDLILTEYGRKYNVNIS [PRP8]	2.2 ± 0.18	2.42 ± 0.098	2.28 ± 0.059	3.14 ± 0.23
LFQVEYSLEAIKLGSTA [PUP2]	1.61 ± 0.075	2.32 ± 0.069	2.2 ± 0.053	2.08 ± 0.12
NVTGGKAANFIQNQSPQ [SWI1]	2.77 ± 0.062	2.79 ± 0.063	2.99 ± 0.047	2.87 ± 0.051
ELSIRDVTHTLGMLDDN [SMC4]	3.13 ± 0.091	3.04 ± 0.082	3.27 ± 0.097	3.22 ± 0.049
IDMHLIYGVEWLIEGKL [YDL116W/NUP84]	2.64 ± 0.17	2.58 ± 0.093	2.33 ± 0.099	
IVGVLQDDADPMVSVMK [RPT2]	1.99 ± 0.057	2.31 ± 0.057	2.26 ± 0.056	2.49 ± 0.11
VVEISNGNTSSKTVVTL [FAS1]	3.11 ± 0.06	3.18 ± 0.05	3.26 ± 0.06	3.28 ± 0.072
KIDGNPDELIKAGVEAI [PRE5]	3.32 ± 0.17	3.44 ± 0.2	3.36 ± 0.092	3.29 ± 0.083
MAKCLDNPDQGISDMCR [YCS4]	3.39 ± 0.19	3.55 ± 0.13	3.2 ± 0.15	3.33 ± 0.13
LNIDFGSDKQMFTQIYL [YML103C/NUP188]	3.17 ± 0.14	2.99 ± 0.15	3.25 ± 0.066	2.46 ± 0.12
TVIPEDEEIIQLHFSLL [RPO21]	2.64 ± 0.06	2.98 ± 0.067	2.56 ± 0.086	2.98 ± 0.057
